From patent publication US20230296605A1

Legend:
[1] = target: PRRSV viral lysate (Porcine Reproductive and Respiratory Syndrome Virus); assay: […], antibody immobilized; […]
[2] = target: PRRSV viral lysate (Porcine Reproductive and Respiratory Syndrome Virus); assay: ELISA, coated lysate, 1 ug antibody
[3] = target: PRRSV viral lysate (Porcine Reproductive and Respiratory Syndrome Virus); assay: ELISA Test 2, coated lysate, antibody 1:4000; PBS control 0.118/0.121
[4] = target: lysate of porcine coronavirus; assay: ELISA Test 2, coated lysate, antibody 1:4000; PBS control 0.140/0.145
[5] = target: lysate of porcine circovirus type 2; assay: ELISA Test 2, coated lysate, antibody 1:4000; PBS control 0.162/0.153
[6] = target: PRRSV viral lysate (Porcine Reproductive and Respiratory Syndrome Virus); assay: ELISA Test 1, coated lysate, antibody 1:4000, Group 1; PBS control 0.073/0.072
[7] = target: lysate of porcine pseudorabies virus; assay: ELISA Test 1, coated lysate, antibody 1:4000, Group 1; PBS control 0.080/0.089
[8] = target: lysate of porcine pseudorabies virus; assay: ELISA Test 1, coated lysate, antibody 1:4000, Group 2; PBS control 0.054/0.052
[9] = target: PRRSV viral lysate (Porcine Reproductive and Respiratory Syndrome Virus); assay: ELISA Test 1, coated lysate, antibody 1:4000, Group 2; PBS control 0.058/0.060

B1: anti-PRRSV antibody 477 (antibody, V domains shown)
VH: QVHVKQSGAELAKPGASVKMSCKASGYTFTNYWMHWVKQRPGQGLEWIGYINPSTGYTEYNQKFKDKATLTADKSSSTASMQLSSLTSEDSAVYYCGRSTAYGKYGEAWFAYWGQGTLVTVSA
VL: DIVMTQSPASLAVSLGQRATISCRTSESVDSFGNSFMHWYQQKPGQPPKLLIYLASNLESGVPARFSGSGSRTDFTLTIDPVEADDAATYYCQQNNEDPYTFGGGTKLEIKR
electric signal, fold over the negative control [1]: 3 times | lowest concentration of PRRSV recognized [2]: < 0.78 ng | OD450 [3]: 0.66 OD450 | OD450 [4]: 0.375 OD450 | OD450 [5]: 0.303 OD450 | OD450 [6]: 0.151 OD450 | OD450 [7]: 0.095 OD450 | OD450 [8]: 0.08 OD450 | OD450 [9]: 0.129 OD450
